The EC50 is the concentration that produces a half-maximal response.

In series [1] the target is T1, GR (Homo sapiens, UniProt P04150).
T1 construct: host or cells: HEK293 (HEK293/GRLuc; HEK293/GRLuc/MSR1 additionally transduced with human MSR1)
T1 sequence (P04150 524-758 limits assumed): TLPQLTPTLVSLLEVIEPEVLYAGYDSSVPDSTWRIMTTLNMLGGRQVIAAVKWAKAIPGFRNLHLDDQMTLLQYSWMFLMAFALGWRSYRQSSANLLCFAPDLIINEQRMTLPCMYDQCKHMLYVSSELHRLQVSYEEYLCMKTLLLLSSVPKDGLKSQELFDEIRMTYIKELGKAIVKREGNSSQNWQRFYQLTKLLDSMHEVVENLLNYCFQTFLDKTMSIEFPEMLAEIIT
Nature of the series: GR luciferase reporter assay in HEK293/GRLuc cells. It counts as cell-based. The following applies: Table 8, ncADCs; for EC50: 48 hours; for S/N: highest RLU / RLU of untreated wells. On the procedure:
Activity of anti-MSR1 ncADCs were tested using an MSR1 ADC steroid responsive luciferase reporter assay. To generate the assay cell line, HEK293 cells were co-transfected with the pBind-GR (Promega, Cat #E158A) and pGL4.35 [Luc2P/9xGAL4UAS/Hygro] (Promega, Cat #E137A) vectors. The pBind-GR vector expresses a fusion protein consisting of the GR ligand binding and the yeast Gal4DNA-binding domain, which binds to the Gal4 upstream activation sequence (UAS) in the luciferase expression vector, that can induce luciferase expression following GR agonist binding. The cells were selected for at least 2 weeks in G418+hygromycin and the resulting cell line is referred to as HEK293/GRLuc. HEK293/GRLuc cells were then transduced with a human MSR1 lentiviral expression vector and 48 hours later cells were sorted for MSR1 positive cells. The resulting cell line is referred to as HEK293/GRLuc/MSR1.
Three-fold serial dilutions of ncADCs in assay buffer were added to the cells for 48 hours. The last well in the plate served as blank control containing only the assay media and was plotted as a continuation of the 3-fold serial dilution. Luciferase activity was determined using the One-Glo™ reagent (Promega, Cat #E6130). Relative light units (RLUs) were measured on an Envision luminometer (PerkinElmer) and EC50 values were determined using a four-parameter logistic equation over a 10-point dose response curve (GraphPad Prism). The signal to noise (S/N) was determined by taking the ratio of the highest RLU on the dose response curve to the RLU in the untreated wells.
To test the activity of GR agonist payloads disclosed herein, a cell-based GR responsive luciferase reporter assay was developed as described above.
Three-fold serial dilutions of free payloads were prepared in 100% DMSO, transferred to fresh assay media, and added to the cells for 48 hours. […] The last well in the plate served as blank control containing only the assay media and 0.2% DMSO (untreated well) and was plotted as a continuation of the 3-fold serial dilution. Luciferase activity was determined using the One-Glo™ reagent (Promega, Cat #E6130). Relative light units (RLUs) were measured on an Envision luminometer (PerkinElmer) and EC50 values were determined using a four-parameter logistic equation over a 10-point dose response curve (GraphPad Prism). The signal to noise (S/N) was determined by taking the ratio of the highest RLU on the dose response curve to the RLU in the untreated wells.
(In a reporter assay the amount or activity of a reporter protein is the signal.)

The nature of series [2]: Lysosomal cleavage assay (payload release). It is filed as in vitro ADME, human. The settings on record: 0 hours, 1 μM payload-equivalent ncADC, 37° C.; for Released Payload Precursor Concentration: precursor PIII-1 released; for Released Payload Concentration: steroid III released. The protocol: To confirm the release of payloads linked to antibodies via hemiaminal ether linkers, a lysosomal cleavage assay was performed. […] 200 μL of resulting mixture with 1 μM payload-equivalent ncADC was incubated at 37° C. with gentle shaking over a 24-hour period. A 20 μL aliquot was taken at 0, 0.5, 1.0, 2.0, 4.0, 8.0 and 24 hours and immediately transferred to a plate containing 80 μL cold acetonitrile to deactivate the lysosomal enzymes and precipitate the proteins. After centrifugation at 2,000 rpm for 5 minutes, aliquots of supernatant were diluted with an equal volume of water for LC-MS analysis to determine the amount of precursor and payload released from ncADC.

Series [3] has as its target T2, human macrophage scavenger receptor 1 (MSR1) (human, UniProt P21757 1-451).
T2 sequence (looked up): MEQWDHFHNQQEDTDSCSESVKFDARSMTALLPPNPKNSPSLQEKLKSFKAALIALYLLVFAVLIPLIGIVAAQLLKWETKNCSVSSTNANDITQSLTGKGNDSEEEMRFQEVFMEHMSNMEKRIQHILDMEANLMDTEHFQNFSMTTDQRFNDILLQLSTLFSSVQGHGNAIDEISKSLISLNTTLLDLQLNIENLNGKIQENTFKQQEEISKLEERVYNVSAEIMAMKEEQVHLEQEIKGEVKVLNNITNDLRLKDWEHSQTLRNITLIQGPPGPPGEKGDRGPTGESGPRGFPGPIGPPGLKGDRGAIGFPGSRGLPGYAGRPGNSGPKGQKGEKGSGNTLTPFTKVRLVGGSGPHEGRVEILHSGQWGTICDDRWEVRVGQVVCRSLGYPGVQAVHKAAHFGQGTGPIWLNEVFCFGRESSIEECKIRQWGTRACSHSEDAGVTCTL
Nature of the series: cell-based or functional assay.

B1: H1H21234N-N297Q-L1-PIII-1 (antibody, V domains shown)
VH: QVQLQESGPGLVKPSETLSLTCTVTGGSISRNYWSWIRQPPGKGLEWIGYIYYSGSIDYNPSLKSRVTISVDTSKNQFSLKLSSMTAADTAVYYCARDRWNWKYGMDVWGQGTTVIVSS
VL: EIVLTQSPGTLSLSPGERATLSCRASQTVRNNYLAWYHQKPGQAPRLLIYGASSRATGIPDRFSGSGSGTDFTLTISRLEPEDFTVYYCHQYGNSPWTFGQGTKMEIKR
modifications: heavy-chain constant region (not part of this entry): N297Q (EU); linker-payload L1-PIII-1 (DIBAC-suc-PEG4-vcPAB-PIII-1, payload 6,11-2F-budesonide III) clicked onto azido-PEG3-amine on glutamines; DAR 4
B1: in series [1], the response was half-maximal at 50.6 nM (EC50) and the S/N is recorded as 16.4. In series [2], the “Released Payload Precursor Concentration” value amounted to 0 nM and the “Released Payload Concentration” value is reported as 0 nM. Further, in series [3], the “EC50, GR luciferase reporter activity in HEK293/GRLuc/MSR1 cells” value came out at 0.0973 nM and the “S/N (highest RLU / RLU in untreated wells), HEK293/GRLuc/MSR1 cells” value came to 143.

B2: H1H21234N-N297Q-L3-PIII-1 (antibody, V domains shown)
VH: QVQLQESGPGLVKPSETLSLTCTVTGGSISRNYWSWIRQPPGKGLEWIGYIYYSGSIDYNPSLKSRVTISVDTSKNQFSLKLSSMTAADTAVYYCARDRWNWKYGMDVWGQGTTVIVSS
VL: EIVLTQSPGTLSLSPGERATLSCRASQTVRNNYLAWYHQKPGQAPRLLIYGASSRATGIPDRFSGSGSGTDFTLTISRLEPEDFTVYYCHQYGNSPWTFGQGTKMEIKR
modifications: heavy-chain constant region (not part of this entry): N297Q (EU); linker-payload L3-PIII-1 (DIBAC-suc-PEG4-GGF-PIII-1) clicked onto azido-PEG3-amine on glutamines; DAR 4
For the molecule B2, in series [1], the EC50 came out at 47.6 nM and the S/N is 17.5. Besides, in series [2], the “Released Payload Precursor Concentration” value was 0 nM and the “Released Payload Concentration” value was 10.1 nM. Moreover, in series [3], the “EC50, GR luciferase reporter activity in HEK293/GRLuc/MSR1 cells” value worked out at 0.0854 nM and the “S/N (highest RLU / RLU in untreated wells), HEK293/GRLuc/MSR1 cells” value is 269.
